Target: nat1_yeast NAT1 (UniProt P12945)
Sequence (P12945 whole entry): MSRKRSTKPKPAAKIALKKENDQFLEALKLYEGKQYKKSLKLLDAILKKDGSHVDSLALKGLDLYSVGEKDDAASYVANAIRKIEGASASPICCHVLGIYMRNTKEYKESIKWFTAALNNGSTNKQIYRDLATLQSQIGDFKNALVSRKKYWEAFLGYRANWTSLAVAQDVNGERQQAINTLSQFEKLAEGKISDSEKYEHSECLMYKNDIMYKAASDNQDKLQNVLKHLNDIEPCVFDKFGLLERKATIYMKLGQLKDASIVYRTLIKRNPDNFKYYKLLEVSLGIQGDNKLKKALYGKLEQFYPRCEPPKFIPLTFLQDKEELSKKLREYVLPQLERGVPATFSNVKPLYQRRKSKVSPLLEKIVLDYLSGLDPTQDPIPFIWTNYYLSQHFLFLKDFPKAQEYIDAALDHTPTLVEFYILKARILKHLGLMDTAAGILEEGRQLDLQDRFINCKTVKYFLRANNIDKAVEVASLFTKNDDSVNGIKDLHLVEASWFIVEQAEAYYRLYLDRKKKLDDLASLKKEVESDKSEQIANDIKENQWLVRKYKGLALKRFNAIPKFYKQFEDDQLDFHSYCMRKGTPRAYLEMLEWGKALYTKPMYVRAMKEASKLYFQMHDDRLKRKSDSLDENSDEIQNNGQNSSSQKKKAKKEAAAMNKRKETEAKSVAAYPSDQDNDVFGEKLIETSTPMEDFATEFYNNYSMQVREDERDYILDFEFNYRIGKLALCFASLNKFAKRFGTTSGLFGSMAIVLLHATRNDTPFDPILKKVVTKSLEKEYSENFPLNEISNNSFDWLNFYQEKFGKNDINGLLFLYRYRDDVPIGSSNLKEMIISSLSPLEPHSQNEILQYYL

Large ribosomal subunit protein uL4A (Saccharomyces cerevisiae), P10664 S2K, sequence (P10664 whole entry S2K): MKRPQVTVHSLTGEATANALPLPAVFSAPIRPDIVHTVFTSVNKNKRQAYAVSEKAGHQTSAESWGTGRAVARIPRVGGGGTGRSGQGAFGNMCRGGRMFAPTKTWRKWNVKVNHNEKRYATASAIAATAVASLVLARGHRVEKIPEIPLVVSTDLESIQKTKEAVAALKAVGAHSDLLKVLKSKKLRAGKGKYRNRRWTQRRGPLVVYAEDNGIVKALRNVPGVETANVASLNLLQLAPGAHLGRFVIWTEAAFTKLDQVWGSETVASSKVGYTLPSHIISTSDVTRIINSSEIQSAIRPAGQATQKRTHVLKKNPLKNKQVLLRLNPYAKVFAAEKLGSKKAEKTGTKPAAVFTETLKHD

- effect of a mutation on the interaction: increasing interaction
Substance: Large ribosomal subunit protein uL4A (Saccharomyces cerevisiae), P10664 S2K
